Experimental data published in publication PMC6137059.

Each sequence was assayed against TcpK (Clostridium perfringens (plasmid pCW3)) (UniProt Q1PLI2) (assay: SPR). Conditions: SPR: 10 mM HEPES pH 7.4, 200 mM NaCl, 3 mM EDTA, 0.05% Tween 20, 20 C.
“AAGGAACTTTACAAGGAACTTTA (double strand) [linker CAA]” gave a binding signal of 25 % Rmax.
In the case of “AAGGAACTTTACAGGGAACTT (double strand) [R2L10]”, the binding signal is reported as 55 % Rmax.
In the case of “AAGGAACTTTACAGGGAACTTTA (double strand) [R2L9]”, the binding signal is reported as 100 % Rmax.
Sequence “AAGGAACTTTACAGGGAACTTTA (double strand) [oriTmin23 (SPR)]” has a Kd of 360 nM.
“AAGGAACTTTACAGGGAACTTTAAAAATTT (double strand) [oriT#1 (SPR)]” showed a Kd of 521 nM.
“AAGGAACTTTACAGGGAACTTTAAAAATTTAAATTGATA (double strand) [R2L1]” gave a binding signal of 100 % Rmax.
In the case of “ACAGGGAACTTTAAAAATTTAAATTGATAT (double strand) [oriT#2 (SPR)]”, the Kd is reported as 2580 nM.
